Results from article PMC4175335, “Thiosulfate Transfer Mediated by DsrE/TusA Homologs from Acidothermophilic Sulfur-oxidizing Archaeon Metallosphaera cuprina*” (The Journal of Biological Chemistry, 2014).
Values belong to the molecule of their own block, whether it stands above or below them.

B2: DsrE3A (Mcup_0681) of Metallosphaera cuprina Ar-4, N-terminally His-tagged (natural protein, UniProt F4G1H3 1-133, looked up)
chain: MAQTQTEQAQEEQKKKILIVVTHGPEDLDRTYAPLFMASISASMEYETSVFFMIKGPLLLSKKWQEDERKKGGNPFIHFFDMAKDNNVKMYVCVQSLKDMCHMNESDVVDGIELVGGSTLIDLTLDADRTLFF
notes: DsrE3A, locus Mcup_0681, Metallosphaera cuprina Ar-4; gene amplified from genomic DNA into pET15b; theoretical mass with His tag 17,697 Da; Homotrimer by gel filtration

Columns and labels:
[1] = biological target: DsrE3A-C93S with His-tag (Metallosphaera cuprina Ar-4); assay: SEC; oligomerization analysis, data not shown; proteins incubated with or without 25 μM TCEP at room temperature for 1 h; HiLoad 16/60 Superdex 75; 50 mM Tris-HCl (pH 7.5), 150 mM KCl; 0.5 ml/min
[2] = biological target: DsrE3A-C93S/C101S with His-tag (Metallosphaera cuprina Ar-4); assay: as above
[3] = biological target: DsrE3A-C101S with His-tag (Metallosphaera cuprina Ar-4); assay: as above
[4] = biological target: the molecule itself; assay: as above
[5] = biological target: B2; assay: SPR; Biacore 3000, CM5 chip, 25 °C; DsrE3A covalently immobilised (about 1500 RU); TusA as analyte in PBST (PBS, 0.005% Tween 20, pH 7.4), 30 μl/min, 2 min injection, 8 min dissociation; settings: both partners purified

Molecule: DsrE3A-C93S/C101S with His-tag (natural protein)
- stoichiometry N [2]: 3

Molecule: DsrE3A-C101S with His-tag (natural protein)
- stoichiometry N [3]: 3

Molecule: B2
- stoichiometry N [4]: 3

The next lines start with results.

- stoichiometry N [1]: 3
Molecule: DsrE3A-C93S with His-tag (natural protein)

- Kd [5]: 0.1 nM
B1: TusA (Mcup_0683) of Metallosphaera cuprina Ar-4, N-terminally His-tagged (natural protein, UniProt F4G1H5 1-80, looked up)
chain: MAQDVKITKTLDVKGMYCPGPVMETAKAIKQINVGEVLEVLATDPAAKPDIEAWARRTGNQILDIQQQGGVTRILVKRAK
notes: TusA, locus Mcup_0683, Metallosphaera cuprina Ar-4; gene amplified from genomic DNA into pET15b; theoretical mass with His tag 10,895 Da; Occurs as monomers and dimers
- stoichiometry N [4]: 2
